What was measured:
[1] = target: FGFRs expressed on NIH3T3 cells; assay: cell-based or functional assay
[2] = target: FGFRs expressed on NIH3T3 cells; assay: equilibrium titration of His-tagged FGF1 on FGFR-expressing NIH3T3 cells at 4 °C, flow cytometry with anti-His antibody

Substance	inhibition of ERK phosphorylation induced by 1 nM wild type FGF1 in NIH3T3 cells (Western blot against phosphoERK) [1] [nM]	Kd [2] [nM]
FGF1 L131R mutant, recombinant soluble, His-tagged (from UniProt P14210 16-155) (ligand)	1	–
recombinant soluble wild-type FGF1 with N-terminal 6x His tag (from UniProt P14210 16-155) (ligand)	–	10

Reference: US20220023385A1
